Results taken from patent publication EP1280904B1 (CALIFORNIA INSTITUTE OF TECHNOLOGY, dated 2005).
Values belong to the molecule of their own block, whether it stands above or below them. Where no end group is shown, it is not given here.

Key:
Assay in all cases: cell-based or functional assay
[1] = target: MRGA4-GFP fusion protein (mouse) (UniProt Q91WW2)
[2] = target: T1, MRGA1-GFP fusion protein (mouse, UniProt Q91WW5 1-304)
T1 sequence: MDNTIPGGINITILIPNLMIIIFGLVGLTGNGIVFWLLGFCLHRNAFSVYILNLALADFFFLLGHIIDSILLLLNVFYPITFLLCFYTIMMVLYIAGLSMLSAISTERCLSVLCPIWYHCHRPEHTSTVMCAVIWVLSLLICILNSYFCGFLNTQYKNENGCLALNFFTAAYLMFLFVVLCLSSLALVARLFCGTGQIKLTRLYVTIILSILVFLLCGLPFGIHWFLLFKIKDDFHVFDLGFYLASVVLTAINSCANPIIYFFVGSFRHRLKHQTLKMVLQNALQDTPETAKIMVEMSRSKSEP

[3] = target: MAS1

Sequence of MRGA4-GFP fusion protein (mouse) (Q91WW2 9-313 A204G limits assumed, form in doubt): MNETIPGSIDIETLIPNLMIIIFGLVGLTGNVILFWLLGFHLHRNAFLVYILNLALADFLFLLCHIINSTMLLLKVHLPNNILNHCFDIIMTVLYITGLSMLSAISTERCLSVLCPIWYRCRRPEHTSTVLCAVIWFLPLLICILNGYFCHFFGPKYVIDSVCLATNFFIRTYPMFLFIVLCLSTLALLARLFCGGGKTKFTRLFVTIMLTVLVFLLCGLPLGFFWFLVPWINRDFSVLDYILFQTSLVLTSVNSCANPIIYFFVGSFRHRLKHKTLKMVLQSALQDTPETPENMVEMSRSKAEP

EC50 of calcium dose-response, HEK cells expressing G 15 [1]: 60 nM
Molecule: NPAF (peptide)

EC50 of calcium dose-response, HEK cells expressing G 15 (data not shown) [2]: 60 nM | EC50 of calcium dose-response, HEK cells expressing G 15 (data not shown) [1]: 200 nM
Molecule: ACTH (peptide)

EC50 of calcium dose-response, HEK cells expressing G 15 [2]: 200 nM | EC50 of calcium dose-response, HEK-G 15 cells [3]: 400 nM
Molecule: NPFF (peptide)

EC50 of calcium dose-response, HEK cells expressing G 15 [2]: 20 nM
Molecule: FLRF-NH2 [FLRFamide]
